Sequences and labels used below:
B1: recombinant plasmin (enzyme)
heavy: EPLDDYVNTQGASLFSVTKKQLGAGSIEECAAKCEEDEEFTCRAFQYHSKEQQCVIMAENRKSSIIIRMRDVVLFEKKVYLSECKTGNGKNYRGTMSKTKNGITCQKWSSTSPHRPRFSPATHPSEGLEENYCRNPDNDPQGPWCYTTDPEKRYDYCDILECEEECMHCSGENYDGKISKTMSGLECQAWDSQSPHAHGYIPSKFPNKNLKKNYCRNPDRELRPWCFTTDPNKRWELCDIPRCTTPPPSSGPTYQCLKGTGENYRGNVAVTVSGHTCQHWSAQTPHTHNRTPENFPCKNLDENYCRNPDGKRAPWCHTTNSQVRWEYCKIPSCDSSPVSTEQLAPTAPPELTPVVQDCYHGDGQSYRGTSSTTTTGKKCQSWSSMTPHRHQKTPENYPNAGLTMNYCRNPDADKGPWCFTTDPSVRWEYCNLKKCSGTEASVVAPPPVVLLPDVETPSEEDCMFGNGKGYRGKRATTVTGTPCQDWAAQEPHRHSIFTPETNPRAGLEKNYCRNPDGDVGGPWCYTTNPRKLYDYCDVPQCAAPSFDCGKPQVEPKKCPGR
light: VVGGCVAHPHSWPWQVSLRTRFGMHFCGGTLISPEWVLTAAHCLEKSPRPSSYKVILGAHQEVNLEPHVQEIEVSRLFLEPTRKDIALLKLSSPAVITDKVIPACLPSPNYVVADRTECFITGWGETQGTFGAGLLKEAQLPVIENKVCNRYEFLNGRVQSTELCAGHLAGGTDSCQGDSGGPLVCFEKDKYILQGVTSWGLGCARPNKPGVYVRVSRFVTWIEGVMRNN
notes: Made by cleaving rPlg with tPA; also called rPlm; recombinant Plm

Test [1] addresses T1, recombinant streptokinase from Streptococcus pyrogenes (so in the source) (Streptococcus pyrogenes (so in the source)).
T1 construct: Immobilised on a Ni2+-NTA chip; also called SK
The test can be described thus: SPR (Biacore T200), SK on Ni2+-NTA chip, 1:1 Langmuir model. On the technique in general: SPR reads the build-up and loss of mass on a sensor chip optically.

Test [2] deals with T2, recombinant plasminogen (human, UniProt P00747 20-810).
T2 construct: also called rPlg; recombinant Plg
The test can be described thus: SPR (Biacore T200), α2-AP on Ni2+-NTA chip, 1:1 Langmuir model.

The target in test [3] is B1. The description is as above.
The target in test [4] is T3, native plasmin (purchased from Haematologic Technologies) (UniProt P00747 97-580; P00747 581-810, limits assumed).
T3 construct: Plasmin has two disulphide-linked chains (heavy and light); also called native Plm
The description is as above.

In test [5] the target is T4, native plasminogen (purchased from Merck, purified from human plasma) (human, UniProt P00747 20-810).
T4 construct: mature; also called native Plg; nPlg
The experiment in a line: SPR (Biacore T200), α2-AP on Ni2+-NTA chip, two-state reaction model; overall KD of the two-state reaction model.

Test [6] concerns the target T4, native plasminogen (purchased from …). The experiment in a line: SPR (Biacore T200), α2-AP on Ni2+-NTA chip, two-state reaction model, ka1; ka1, first step of the two-state model.
The target is the same in test [7]. The test can be described thus: SPR (Biacore T200), α2-AP on Ni2+-NTA chip, two-state reaction model, kd1; kd1, first step of the two-state model.

What is called Kd is the equilibrium constant for the complex coming apart. What is called koff is a measure of how fast the partners let go of each other. By kon is commonly meant the second-order rate constant of association. In the case of B1, in test [1], the Kd worked out at 0.04 nM, the koff came to 1.6e-05 s⁻¹ and the on-rate constant (kon) was found to be 410000 M⁻¹ s⁻¹.

B2: recombinant alpha 2-antiplasmin (other, UniProt P08697 40-491, looked up)
chain: NQEQVSPLTLLKLGNQEPGGQTALKSPPGVCSRDPTPEQTHRLARAMMAFTADLFSLVAQTSTCPNLILSPLSVALALSHLALGAQNHTLQRLQQVLHAGSGPCLPHLLSRLCQDLGPGAFRLAARMYLQKGFPIKEDFLEQSEQLFGAKPVSLTGKQEDDLANINQWVKEATEGKIQEFLSGLPEDTVLLLLNAIHFQGFWRNKFDPSLTQRDSFHLDEQFTVPVEMMQARTYPLRWFLLEQPEIQVAHFPFKNNMSFVVLVPTHFEWNVSQVLANLSWDTLHPPLVWERPTKVRLPKLYLKHQMDLVATLSQLGLQELFQAPDLRGISEQSLVVSGVQHQSTLELSEVGVEAAAATSIAMSRMSLSSFSVNRPFLFFIFEDTTGLPLFVGSVRNPNPSAPRELKEQQDSPGNKDFLQSLKGFPRGDKLFGPDLKLVPPMEEDYPQFGSPK
notes: Serpin, immobilised on a Ni2+-NTA chip; also called α2-AP; α2AP
Turning to B2, the Kd in test [2] was 3.4 nM; in test [3] it was 0.68 nM; in test [4], 0.85 nM; in test [5], 9.8 nM. Also, the koff worked out at 0.0005 s⁻¹ in test [2], 0.00011 s⁻¹ in test [3], 0.0043 s⁻¹ in test [4] and 0.065 s⁻¹ in test [7]. Further, the kon came out at 150000 M⁻¹ s⁻¹ in test [2], 160000 M⁻¹ s⁻¹ in test [3], 5.1e+06 M⁻¹ s⁻¹ in test [4] and 1.1e+06 M⁻¹ s⁻¹ in test [6].
